{"source": "the nanobody polyreactivity screen of Harvey et al. (2022)"}
{"experiment": "yeast display, Sf9 membrane polyspecificity reagent, FACS + sequencing; frameworks hold sequencing errors", "how_it_was_run": "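Using colony PCR, genes from sorted yeast display clones were amplified, then sequenced on MiSeq at 2 × 250 and filtered by CDR length. The clones had been stained with 10% biotinylated, detergent-solubilized Sf9 membrane reagent for 1 hour at 4 °C and sorted by FACS into low and high (top ~1%) gates on anti-HA and streptavidin fluorescence. Polyreactivity labels come from the gate of origin.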"}
{"sequence": "QVKRVESGGGLVQAGGSLRFSCADSGFTFGTYAMGWYRQAPGKEREFVAAISSNGGNTYYADSVKGRFTISRDNAKNTVYLEIHSLKPEDTAVSYCADRYPSGTRKWYCYWGQGTQVTVSS", "polyreactivity (PSR sort gate)": "high polyreactivity"}
{"sequence": "QVLLEDSGGGLVQAGARLRLICAASGRIHVNAMGWYRQAPGKERELVASINIGDGTHYADSVKGRFTISRANAKNTVYLQLNSLISEVTAVYYCAADSRSSNACYDYWGQGTQVSVSS", "polyreactivity (PSR sort gate)": "low polyreactivity"}
{"sequence": "QVLLQESGGGLVQAGGSLRLCCAASGYISGDQFMGWYRQAPGKEREFVAGIGNGTNTNYADSVKGRFTTSRDNAKNTVYLQMNSLKPEDTAVYYCAADPSDGSTLAYWGQGTQVTVSS", "polyreactivity (PSR sort gate)": "high polyreactivity"}
{"sequence": "QVLLQESGGGLVQAGGSLRLGCAASGTISPAYYMGRYHQAPGKEREFVAAITYGTNTYYADSEKGRFTISRDNAKNTVYLQMNSLKPEDTAVYYCSATAGYNGAHDYWGQVTQVTVSS", "polyreactivity (PSR sort gate)": "low polyreactivity"}
{"sequence": "QVLLQESGGGLVQAGGSLRLGCAASGTISPAYYMGRYHQAPGKEREFVAAITYGTNTYYADSVKGRFTISRDNAKNSVYLQMNSLKPEDTAVYYCSATAGYNGAHDYWGQGTQVTVSS", "polyreactivity (PSR sort gate)": "low polyreactivity"}
{"sequence": "QVLLQESGGGLVQAGGSLRLSCAASGSIFLIYTMGWYRHAPVKEREFVAGITLGTTTYNADSVKGRFTISRDNVKNTVYLKMNILKPEDTEVYYCAVAVGHYTEFWYWGQGTQVTMSS", "polyreactivity (PSR sort gate)": "high polyreactivity"}
{"sequence": "QVLLQESGGGLVQAGGSLRMSCAASGNIFSAGGMGWYRQAPVNERELVAGIGTGTSTNYADSVKGRFTISRDNAKNTVYLQMNSLKPEDTAVYYCAAAYYSGLSHWYWGQGTQVTVSS", "polyreactivity (PSR sort gate)": "low polyreactivity"}
{"sequence": "QVLLQESGGLVQAGCSLRMSCAASGSISTALSMGWYRQAPGKERELVATISDGASTNYADSVKGRFTISRVNAKNTVYLQMNSLKPEDSEVYYCAAQSQYRPDHRYWGQGTQVTVSS", "polyreactivity (PSR sort gate)": "high polyreactivity"}
{"sequence": "QVLLVESGGCLVQAGGSVRLSCAASGSTFAPYVMGWYTQAPGKERELVADISTSGSTYYADSVKGRFTISRDNAKNTVYLQMNSMKPEDTAVYYCAAEDQRWFWTYDCWGQGTQVTVSS", "polyreactivity (PSR sort gate)": "high polyreactivity"}
{"sequence": "QVLLVESGGGIVQAGGSLRLSCAASGSIIEPNAMGWYRQEPGQEREFVAAISGSGGSTYYADSVKGRFTSSRDNAKNTVYLQRNSLKPEYSAVYYCNALYLRTTPQDYDYWGQGTQVTVSS", "polyreactivity (PSR sort gate)": "high polyreactivity"}
{"sequence": "QVLLVESGGGLDHAGGSLPLSCAASGFTFGDNAMGWYRQAPGKERELVAAITSTGGSTNYADSVKGRFTISRDNAKYTVYLQMNSLKPDDTAVYYCAAEWLYRHDGGYPRPMDYWGQGTQVTVSS", "polyreactivity (PSR sort gate)": "low polyreactivity"}
{"sequence": "QVLLVESGGGLLQAGGSLRLSCAASGFTFLGYVMGWYRQAPGKEREFVADITESGGRTYYADSVKGRFTISRDNAKNTVYLQMNSLKPEDTAVYYCSGEVIFEQLNRMDYWGQGTQVTVSS", "polyreactivity (PSR sort gate)": "low polyreactivity"}
{"sequence": "QVLLVESGGGLVQAGGSIRLSCDASGLTFYQNSMGWYRQAPGKERELVAAISSTRITNYADSVKVRFTLSRDNAKTPVYLQMNSLIPEDTAVYYCNADYHPFFFEFIYWGQGTQGTVSS", "polyreactivity (PSR sort gate)": "high polyreactivity"}
{"sequence": "QVLLVESGGGLVQAGGSLRLICAASGLIFFYYDMGWYRQAPGKERELVAAISQRGGSTYYADSLKGRFTISRDNEKNTVYLQMNSLKPEETAVYYCNVRSPASYRRYYWGQGTQVTVSS", "polyreactivity (PSR sort gate)": "high polyreactivity"}
{"sequence": "QVLLVESGGGLVQAGGSLRLSCAASGGTFGAYDMGWYRQAPGKERELVATITSGGRTNYADSVTGRFTISRDNAKNTVYLQMNSLKPVDTAVYYCNARYYGYDAPYHTYEYYYWGQGTQVTVSS", "polyreactivity (PSR sort gate)": "low polyreactivity"}
{"sequence": "QVLLVESGGGLVQAGGSLRLSCAASGRTFVYYTMGWDRQAPGKERELVAAINWRGTSTYYADSVKGRFTISRDNAKNTVYLQMNSLKPEDTAVYYCYAERNAGFDYWGQGTQVTVSS", "polyreactivity (PSR sort gate)": "high polyreactivity"}
{"sequence": "QVLLVESGGGLVQAGGSLRLSCAASGSIFIANAKGWYRQAPGKERELGAAIDSGGSTNYADSVKGRFTISRDNAKYTVYLQMNSLKPEDTAVYYCAADGTLTAPGGDYWGQGTQVTVSS", "polyreactivity (PSR sort gate)": "high polyreactivity"}
{"sequence": "QVLLVESGGGLVQAGGSLRLSCAASGSTFWRNAMGWYRQATGKERELVAVISGSGSRTFYADSVKGRFTISRDNAKNTVNLQMNSLKPEDTAVYYCAADARQYQGFDYWGQGTQVTVSS", "polyreactivity (PSR sort gate)": "high polyreactivity"}
{"sequence": "QVLLVESGGGLVQAGGSLRLSCAPSGRTVDSYAMGWYRQAPGKETELVAAIDWGGGTTYYADSVKGRFRISRDNAKNSVYLQMNSLKPEDTAVYYCAAGDVWIAPYDSWGQGTQVTVSS", "polyreactivity (PSR sort gate)": "low polyreactivity"}
{"sequence": "QVLLVESGGGLVQAGGSLRLSCAPSGSIFDYYTMGWYRQAPGKERELVAAISSDGSTNYADSVKGRFTISRDNAKNTVYLQMNTLKPEDTAVYYCADSTYRFYYYLKRGYWGQGTKVTVSS", "polyreactivity (PSR sort gate)": "low polyreactivity"}
{"sequence": "QVLLVESGGGLVQAGGSLRLSSAASGSIFVCNAMGWYRQAPGKERELVAAIRGVDSTYYGDSVKGRFTISRDNGKNTFFLQMNSLKPEDTAFYYCATLGPGFPRYYDWGQGTQVTVSS", "polyreactivity (PSR sort gate)": "high polyreactivity"}
{"sequence": "QVLLVESGGGLVQEGGSLRLSCAASGITFDTYAMGGYRQAPGKEREFVASIKWITGNTYYEDSVKGRFTISRDNAKNTVYLQMNSLKTEDTAVYYCAARTYYVRGLGGRPGMDYWGQGTQVTVSS", "polyreactivity (PSR sort gate)": "low polyreactivity"}
{"sequence": "QVNLLDSGGGLVKAGGSLRLTCAASGSIYHPYTMGLYRQATGKETELVAAISWSGGNTNYADSVKGRFTISRDYAKNTVYLQMNSLKPEDTAVYYFAAAKRDFVEYDYWGEGTQVTVSS", "polyreactivity (PSR sort gate)": "low polyreactivity"}
{"sequence": "QVNLVQSAGGLVQAGCSLRLSCPASGFILYKNAMGRYRQKPGKERELVAISSSGGSTYYADSVKGRFTISRENAKNTVYLLMNSLKPEDTAVYYCGAYIYGTYYYWGQGTQVTVSS", "polyreactivity (PSR sort gate)": "high polyreactivity"}
{"sequence": "QVPLVESGGGIDQAGGSLRLSCAASGFIFCTYTMGWYIQAPGNEWELVAAISKSSGSTYYADSVKGRFTISRDNAKKTVYLQMNSLKPEDTAVYYCAAPTRSYGTPPYDYWGQGTQVTVSA", "polyreactivity (PSR sort gate)": "low polyreactivity"}
{"sequence": "QVPLVESGGGLVQAGGSLRLSWAASGRTFVPYAMGWDSPAPGKDWELVAAISSGGDTNYADSVKGRVTISRDNAKNTVYLQMNSLKPEDTAVSYCAADVKRDRVWGGDYWGQGTQVTVSS", "polyreactivity (PSR sort gate)": "low polyreactivity"}
{"sequence": "QVPLVESGGGLVQAGVSLRLSCAASGSIFYLYAMGWYRQAPGKERELVAAISRSGASTYYADSVKGRFTISRDNAKNTVYLQMNSQKPEDTAVYYCAAYKIWGRVRYDYWGQGTQVTVSS", "polyreactivity (PSR sort gate)": "low polyreactivity"}
{"sequence": "QVPLVESVGGLVQAGGSLRLSCAASGRIFRANAMGWYRQAPGKEREFVAAINFSVSSTYAYSVKGRFTISRDNAKNTVYLQMNSLKPEDTAVYYCAATPTREGEYWGQGTQVTVSS", "polyreactivity (PSR sort gate)": "low polyreactivity"}
{"sequence": "QVQFVESGGGVVQAGGSLRLSCAASGNIPYWYAMGWSRPAPAKERELVAAISSRGNTYYADSVKGRFTISRDNAKNNVYLQMNSLKQEDTAVYYCAAYAGSFYYWGQGTQVTVSS", "polyreactivity (PSR sort gate)": "high polyreactivity"}
{"sequence": "QVQHAESGGGLDQAGGSLRLSCAASGGNFQANAMGWSRQATGKEREFVATITRGGGSTYYADSVKGRFTISRDNAKNTVYLQMNSLKPEDTAVYYCNSKPSYYQRYNYWGQGTQVTVSS", "polyreactivity (PSR sort gate)": "high polyreactivity"}
{"sequence": "QVQHDQSGGGLVQAGGSLRLSCAASGRTFKPYVMGRYREAPGKERELVAAISSRGDITYYADSVKGRFTITRDNAKNTVYLQMNSLKPEDTAVYYCNAGPAVRSAYSTPYYDYWGQGTQVTVSS", "polyreactivity (PSR sort gate)": "low polyreactivity"}
{"sequence": "QVQHEDSGGGLVQAGGSHRVSCAASGSTFAYNAMGGSRKAPGKERELVATISTDGSTYADSVKGRFTISRDNAQNTVYLQMNSLKPEDTAVYYCNADGHPSDPGYDYWGQGTQVTVSS", "polyreactivity (PSR sort gate)": "low polyreactivity"}
{"sequence": "QVQHEESGGGLVQAGGSLRLSCAASGSIFSDYALGWYRPAPGKERELVAAITINGGSTYYADSVKGRFTISRDNAKITVYLQLNSLKPEDTAVEYCNAGWGRLYDYWGQGTQVTVSS", "polyreactivity (PSR sort gate)": "low polyreactivity"}
{"sequence": "QVQHGESGGGLVQAGSSLRLSCAASGSTIVNNAMGWYRQAPGKERELVAANTSGGSTNYADSVKGRFTISRDNAKNTVYLQMNSLKPEDTAVYYSNADGDSWYTGIPAVSHGYWGQGTQVTVSS", "polyreactivity (PSR sort gate)": "low polyreactivity"}
{"sequence": "QVQHVASGGGIDQAGGSLRLSCAASGFIFSWYALGWYRQAPGKERELVAGISIRGGRTYADSVKGRFTISRDNAKNTVYLQMNSLTPEDTAVYSCATRSYRPYHSLYDYWGQGTQVTVSS", "polyreactivity (PSR sort gate)": "high polyreactivity"}
{"sequence": "QVQHVDSGGGLDHAGGSLRLSCAASGSIFAGYAMGWYRQAPAKERELDAAISSTGGRTYYADSVKGRFTISRDNAKTSVYLQMNSLKPEDTAVYYCGGAYYASYYYWGQGTQVTVSS", "polyreactivity (PSR sort gate)": "high polyreactivity"}
{"sequence": "QVQHVDSGGGLVQAGGSLRLSCAASGSTFGYNAMGWYRQAPGKERELVAAITFSGDSTSYADSVKGRFTISRDNAKNSVYLQMNSLKPEDTAVYYCAVDTWNGDGSGYSLEFEYWGQGTQVTVSS", "polyreactivity (PSR sort gate)": "low polyreactivity"}
{"sequence": "QVQHVESCGGLVQAGGSLRLSCAASGSIFTYYAMGWYRQAPGKEREFVAAISRRGGSTYYADSVKGRFTISRDNAKNTVYLQMNSLKPEDTAVYYCNARYTGSSLYYWGQGTQVTVSS", "polyreactivity (PSR sort gate)": "high polyreactivity"}
{"sequence": "QVQHVESCGGLVQAGGSLRLSCAASGYIFSIYAMGWSRQAPGKERELVAAITWSGATTYYADSVKGRFSISRDNAKNTVYLQMNSLKPEDTAVYYCNADYWHYYEDYESWGQGTQVTVSS", "polyreactivity (PSR sort gate)": "low polyreactivity"}
{"sequence": "QVQHVESGEGLVQAGGSLRLSCAASGSIFAGYAMGWYRQAPGKERELVAAITSSGGSTYYADSVKGRFTISRDNAKNTVYLQMNSLKPEDTAVYYCAKDKLIFYRVGSDYWGQGTQVTVSS", "polyreactivity (PSR sort gate)": "low polyreactivity"}
{"sequence": "QVQHVESGGGIVQAGGSLRISCSASGRTLGYYAMGLYRQAPGKETEMVAASSRSGGSTYYADSVQGRFTNSRDNAKNTVYVEMQSLNPEDTAVYDCAATYGPSRYRYDYWGQGTQVTVSS", "polyreactivity (PSR sort gate)": "high polyreactivity"}
{"sequence": "QVQHVESGGGIVQAGGSLRLSCAASGRTFGPYAMGWYRQAPGKEWELVAVISGRGTSTYYADSVKGRFTISRDNAKNTVYLQMNSLKPEDTAVYYCKADYGSWFWGFDYWGQGTQVTVSS", "polyreactivity (PSR sort gate)": "low polyreactivity"}
{"sequence": "QVQHVESGGGIVQAGGSLRLSCAASGSTFWRNAMGWYRQAPGKEREFVASISWSGGGTYYADSVKGRFTISRDNEKNTVYLQMNSLKPEDTAVYYCAATPDWSYWYGNGDYDYWGQVTQVTVSS", "polyreactivity (PSR sort gate)": "low polyreactivity"}
